Where no end group is shown, it is not given here.
Columns and labels:
Type in all cases: physicochemical
[1] = pH and appearance of 2.5% peptide solutions after adding 0.1 N NaOH
Procedure: To adjust the pH level of the peptide solutions by way of example, 0.1 N NaOH was added to 2 mL of 2.5% peptide solutions and their pH and appearance were measured.

[2] = Appearance of 1.5% peptide solutions with various salts at room temperature; conditions: for Appearance: room temperature
Procedure: The effect of salt ionic strength level on the properties of peptide solutions was evaluated to identify optimized salt ionic strength levels for the peptides as described herein. Increasing the salt ionic strength level of PuraMatrix® (SEQ ID NO:1) and other peptides may generally improve its function and mechanical strength for various clinical applications. To adjust the salt ionic strength of the peptide solutions by way of example, various salt buffer solutions including NaCl, KCl, MgCl2, CaCl2 and DPBS (10×) were added to 2 mL of 1.5% peptide solutions.

[3] = Rheological properties of pH adjusted peptide solutions; conditions: pH adjusted vs not adjusted; KLD12 1%, IEIK13 1%, PuraMatrix 1% and 2.5%
Procedure: Based on the visual observation of the effect of pH level on the properties of the peptide solutions, the effect on the rheological properties of the peptide solutions after adjusting their pH level to 3.4 (PuraMatrix® (SEQ ID NO:1) and KLD12 (SEQ ID NO:3)) or 3.7 (IEIK13 (SEQ ID NO:2)) was evaluated. If the pH levels of peptide solutions are higher than 3.5 (PuraMatrix® (SEQ ID NO:1) and KLD12 (SEQ ID NO:3)) or 3.7 (IEIK13 (SEQ ID NO:2)), the peptide solution began phase separation becoming cloudy. The rheological properties of PuraMatrix® (SEQ ID NO:1), KLD12 (SEQ ID NO:3) and IEIK13 (SEQ ID NO:2) solutions were higher at pH 3.4. The results are shown in FIG. 2 for KLD12 (SEQ ID NO:3) 1%, FIG. 3 for IEIK13 (SEQ ID NO:2) 1%, and FIGS. 4-5 for PuraMatrix® (SEQ ID NO:1) 1% and 2.5%, respectively. Stress sweep tests were performed at 10 rad/s. Frequency sweep tests were performed at 1 Pa.
Based on the results of the effect on the rheological properties of the peptide solutions after adjusting their pH level to 3.4 (PuraMatrix® (SEQ ID NO:1) and KLD12 (SEQ ID NO:3)) or 3.7 (IEIK13 (SEQ ID NO:2)), the effect on the rheological properties of the peptide solutions at various pH levels was evaluated. […] The rheological properties of peptides were evaluated at various concentrations using a rheometer (DHR-1, TA Instruments) with 20 mm plates. The results are shown in FIG. 6A for PuraMatrix® (SEQ ID NO:1) 2.5% solution and FIG. 6B for IEIK13 (SEQ ID NO:2) 1.5% solution, respectively. Frequency sweep tests were performed from 1 rad/sec to 10 rad/sec at 1 Pa and the storage modulus at 1 rad/sec was selected for data.

## KLDLKLDLKLDL [KLD12]
[1]; 0.1N NaOH 150 μL/mL added in 2.5% solution, conc. 2.17%
  Appearance: Clear, thick and stiffer gel
[1]; 0.1N NaOH 200 μL/mL added in 2.5% solution, conc. 2.08%
  Appearance: Clear, thick and stiffer gel
[1]; 0.1N NaOH 225 μL/mL added in 2.5% solution, conc. 2.04%
  Appearance: Clear, thick and stiffer gel
[1]; 0.1N NaOH 250 μL/mL added in 2.5% solution, conc. 2.0%
  Appearance: Slightly cloudy, brittle gel
[1]; 0.1N NaOH 350 μL/mL added in 2.5% solution, conc. 1.85%
  Appearance: Cloudy, phase-separated
[1]; NaOH volume and conc. not given
  Peptide solution pH: 7.0
[1]; peptide solution pH 7.0, NaOH volume and conc. not given
  Appearance: Cloudy, phase-separated
[2]
  critical salt ionic strengths at which peptides become cloudy: 0.3˜0.4 M
[2]; CaCl2 0 M, ionic strength 0 M, conc. 1.5%
  Appearance: Clear, thick gel
[2]; CaCl2 0.05 M, ionic strength 0.15 M, conc. 1.48%
  Appearance: Clear, thick, stiffer gel
[2]; CaCl2 0.067 M, ionic strength 0.2 M, conc. 1.47%
  Appearance: Clear, thick, stiffer gel
[2]; CaCl2 0.083 M, ionic strength 0.25 M, conc. 1.46%
  Appearance: Clear, thick, stiffer gel
[2]; CaCl2 0.1 M, ionic strength 0.3 M, conc. 1.45%
  Appearance: Clear, thick, stiffer gel
[2]; CaCl2 0.117 M, ionic strength 0.35 M, conc. 1.44%
  Appearance: Clear, thick, stiffer gel
[2]; CaCl2 0.133 M, ionic strength 0.4 M, conc. 1.43%
  Appearance: Slightly cloudy, thick, stiffer gel
[2]; CaCl2 0.15 M, ionic strength 0.45 M, conc. 1.43%
  Appearance: Slightly cloudy, brittle gel
[2]; CaCl2 0.167 M, ionic strength 0.5 M, conc. 1.42%
  Appearance: Cloudy, phase-separated
[2]; KCl 0 M, ionic strength 0 M, conc. 1.5%
  Appearance: Clear, thick gel
[2]; KCl 0.05 M, ionic strength 0.5 M, conc. 1.48%
  Appearance: Clear, thick, stiffer gel
[2]; KCl 0.1 M, ionic strength 0.1 M, conc. 1.45%
  Appearance: Clear, thick, stiffer gel
[2]; KCl 0.15 M, ionic strength 0.15 M, conc. 1.43%
  Appearance: Clear, thick, stiffer gel
[2]; KCl 0.2 M, ionic strength 0.2 M, conc. 1.4%
  Appearance: Clear, thick, stiffer gel
[2]; KCl 0.25 M, ionic strength 0.25 M, conc. 1.38%
  Appearance: Clear, thick, stiffer gel
[2]; KCl 0.3 M, ionic strength 0.3 M, conc. 1.35%
  Appearance: Slightly cloudy, thick, stiffer gel
[2]; KCl 0.35 M, ionic strength 0.35 M, conc. 1.32%
  Appearance: Slightly cloudy, brittle gel
[2]; KCl 0.4 M, ionic strength 0.4 M, conc. 1.3%
  Appearance: Cloudy, phase-separated
[2]; MgCl2 0 M, ionic strength 0 M, conc. 1.5%
  Appearance: Clear, thick gel
[2]; MgCl2 0.05 M, ionic strength 0.15 M, conc. 1.48%
  Appearance: Clear, thick, stiffer gel
[2]; MgCl2 0.067 M, ionic strength 0.2 M, conc. 1.47%
  Appearance: Clear, thick, stiffer gel
[2]; MgCl2 0.083 M, ionic strength 0.25 M, conc. 1.46%
  Appearance: Clear, thick, stiffer gel
[2]; MgCl2 0.1 M, ionic strength 0.3 M, conc. 1.45%
  Appearance: Clear, thick, stiffer gel
[2]; MgCl2 0.117 M, ionic strength 0.35 M, conc. 1.44%
  Appearance: Clear, thick, stiffer gel
[2]; MgCl2 0.133 M, ionic strength 0.4 M, conc. 1.43%
  Appearance: Slightly cloudy, thick, stiffer gel
[2]; MgCl2 0.15 M, ionic strength 0.45 M, conc. 1.43%
  Appearance: Slightly cloudy, brittle gel
[2]; MgCl2 0.167 M, ionic strength 0.5 M, conc. 1.42%
  Appearance: Cloudy, phase-separated
[2]; NaCl 0 M, ionic strength 0 M, conc. 1.5%
  Appearance: Clear, thick gel
[2]; NaCl 0.05 M, ionic strength 0.5 M, conc. 1.48%
  Appearance: Clear, thick, stiffer gel
[2]; NaCl 0.1 M, ionic strength 0.1 M, conc. 1.45%
  Appearance: Clear, thick, stiffer gel
[2]; NaCl 0.15 M, ionic strength 0.15 M, conc. 1.43%
  Appearance: Clear, thick, stiffer gel
[2]; NaCl 0.2 M, ionic strength 0.2 M, conc. 1.4%
  Appearance: Clear, thick, stiffer gel
[2]; NaCl 0.25 M, ionic strength 0.25 M, conc. 1.38%
  Appearance: Clear, thick, stiffer gel
[2]; NaCl 0.3 M, ionic strength 0.3 M, conc. 1.35%
  Appearance: Slightly cloudy, thick, stiffer gel
[2]; NaCl 0.35 M, ionic strength 0.35 M, conc. 1.32%
  Appearance: Slightly cloudy, brittle gel
[2]; NaCl 0.4 M, ionic strength 0.4 M, conc. 1.3%
  Appearance: Cloudy, phase-separated
[2]; depending on different salts, 1.5% peptide solutions
  salt ionic strength increase that did not change the clear color, while apparent stiffness increased: 0.25˜0.35 M
[3]
  rheological properties of solutions at pH 3.4: higher

— patent publication US20220160939A1, “SELF-ASSEMBLING PEPTIDES AS BRONCHIAL OBSTRUCTION AGENTS” (3-D MATRIX, LTD., priority 2014, published 2022)
